Results published in article PMC11178795, “Hydrogen peroxide is required for light-induced stomatal opening across different plant species” (Nature Communications, 2024).

T1: GST-bZIP30 (Arabidopsis thaliana (Mouse-ear cress), UniProt Q9SIG8)
T1 chain: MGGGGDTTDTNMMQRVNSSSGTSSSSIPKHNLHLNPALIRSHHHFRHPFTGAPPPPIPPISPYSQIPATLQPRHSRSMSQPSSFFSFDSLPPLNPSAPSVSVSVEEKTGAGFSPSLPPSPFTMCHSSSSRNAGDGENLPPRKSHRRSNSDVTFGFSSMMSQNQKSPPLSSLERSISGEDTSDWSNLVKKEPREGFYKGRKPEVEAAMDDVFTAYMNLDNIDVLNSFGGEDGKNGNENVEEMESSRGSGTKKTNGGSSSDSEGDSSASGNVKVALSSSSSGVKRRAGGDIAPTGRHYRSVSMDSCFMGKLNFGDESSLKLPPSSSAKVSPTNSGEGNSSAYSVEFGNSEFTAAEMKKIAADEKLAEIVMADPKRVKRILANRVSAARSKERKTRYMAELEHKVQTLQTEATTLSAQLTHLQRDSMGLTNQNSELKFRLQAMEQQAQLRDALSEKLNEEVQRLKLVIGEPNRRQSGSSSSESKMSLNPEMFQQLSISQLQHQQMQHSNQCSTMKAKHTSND

T2: GST-bZIP30 (Arabidopsis thaliana, UniProt Q9SIG8 1-519)
T2 construct: bZIP30 transcription factor, Arabidopsis, AT2G21230; full-length coding region without stop codon; destination vector pDEST15 (N-GST); source: Escherichia coli, purified (glutathione beads); not shown: GST, N-terminal, kept
T2 sequence (looked up): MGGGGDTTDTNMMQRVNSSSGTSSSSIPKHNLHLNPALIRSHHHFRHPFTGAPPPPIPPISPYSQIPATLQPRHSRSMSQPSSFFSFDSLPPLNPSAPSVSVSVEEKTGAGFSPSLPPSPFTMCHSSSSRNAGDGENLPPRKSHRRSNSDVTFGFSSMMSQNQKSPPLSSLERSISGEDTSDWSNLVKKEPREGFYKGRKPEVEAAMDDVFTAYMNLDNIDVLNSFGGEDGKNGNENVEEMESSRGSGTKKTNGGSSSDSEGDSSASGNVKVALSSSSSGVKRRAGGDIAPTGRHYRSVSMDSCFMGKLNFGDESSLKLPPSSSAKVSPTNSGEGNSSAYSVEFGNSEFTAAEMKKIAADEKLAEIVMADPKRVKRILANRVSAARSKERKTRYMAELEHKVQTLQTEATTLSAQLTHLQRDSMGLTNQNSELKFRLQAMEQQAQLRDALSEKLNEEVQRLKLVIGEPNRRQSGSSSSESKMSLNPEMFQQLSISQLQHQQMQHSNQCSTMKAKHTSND

T3: MBP-bZIP30 (Arabidopsis thaliana, UniProt Q9SIG8 1-519)
T3 construct: bZIP30 transcription factor, Arabidopsis, AT2G21230; full-length coding region without stop codon; destination vector pMAL2CGW (N-MBP); source: Escherichia coli, purified (amylose resin); not shown: MBP, N-terminal, kept
T3 sequence (looked up): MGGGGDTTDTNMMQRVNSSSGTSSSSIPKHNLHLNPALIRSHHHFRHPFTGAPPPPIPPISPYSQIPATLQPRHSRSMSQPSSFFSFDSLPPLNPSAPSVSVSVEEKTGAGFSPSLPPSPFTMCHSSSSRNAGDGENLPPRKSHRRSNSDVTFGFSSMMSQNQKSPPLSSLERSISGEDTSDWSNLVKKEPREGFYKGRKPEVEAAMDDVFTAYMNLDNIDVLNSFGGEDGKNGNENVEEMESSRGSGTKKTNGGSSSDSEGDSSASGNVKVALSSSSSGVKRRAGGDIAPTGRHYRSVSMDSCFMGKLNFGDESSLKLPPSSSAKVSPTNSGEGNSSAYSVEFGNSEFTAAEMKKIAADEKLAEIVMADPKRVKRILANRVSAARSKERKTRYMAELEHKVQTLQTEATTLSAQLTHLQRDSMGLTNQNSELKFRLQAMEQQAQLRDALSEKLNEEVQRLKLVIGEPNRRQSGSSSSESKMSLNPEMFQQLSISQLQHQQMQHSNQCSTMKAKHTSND

B1: MBP-BZR1 (natural protein, Arabidopsis thaliana, UniProt Q8S307 1-336, looked up)
chain: MTSDGATSTSAAAAAAAAAAARRKPSWRERENNRRRERRRRAVAAKIYTGLRAQGDYNLPKHCDNNEVLKALCVEAGWVVEEDGTTYRKGCKPLPGEIAGTSSRVTPYSSQNQSPLSSAFQSPIPSYQVSPSSSSFPSPSRGEPNNNMSSTFFPFLRNGGIPSSLPSLRISNSCPVTPPVSSPTSKNPKPLPNWESIAKQSMAIAKQSMASFNYPFYAVSAPASPTHRHQFHTPATIPECDESDSSTVDSGHWISFQKFAQQQPFSASMVPTSPTFNLVKPAPQQMSPNTAAFQEIGQSSEFKFENSQVKPWEGERIHDVGMEDLELTLGNGKARG
notes: BRASSINAZOLE-RESISTANT1 (BZR1), Arabidopsis, AT1G75080; full-length coding region without stop codon; destination vector pMAL2CGW (N-MBP); source: Escherichia coli, purified (amylose resin); not shown: MBP, N-terminal, kept
B2: GST-BZR1 (natural protein, Arabidopsis thaliana, UniProt Q8S307 1-336, looked up)
chain: MTSDGATSTSAAAAAAAAAAARRKPSWRERENNRRRERRRRAVAAKIYTGLRAQGDYNLPKHCDNNEVLKALCVEAGWVVEEDGTTYRKGCKPLPGEIAGTSSRVTPYSSQNQSPLSSAFQSPIPSYQVSPSSSSFPSPSRGEPNNNMSSTFFPFLRNGGIPSSLPSLRISNSCPVTPPVSSPTSKNPKPLPNWESIAKQSMAIAKQSMASFNYPFYAVSAPASPTHRHQFHTPATIPECDESDSSTVDSGHWISFQKFAQQQPFSASMVPTSPTFNLVKPAPQQMSPNTAAFQEIGQSSEFKFENSQVKPWEGERIHDVGMEDLELTLGNGKARG
notes: BRASSINAZOLE-RESISTANT1 (BZR1), Arabidopsis, AT1G75080; full-length coding region without stop codon; destination vector pDEST15 (N-GST); source: Escherichia coli, purified (glutathione beads); not shown: GST, N-terminal, kept
B3: MBP-KIN10 (enzyme, Arabidopsis thaliana, UniProt Q38997 1-512, looked up)
chain: MDGSGTGSRSGVESILPNYKLGRTLGIGSFGRVKIAEHALTGHKVAIKILNRRKIKNMEMEEKVRREIKILRLFMHPHIIRLYEVIETPTDIYLVMEYVNSGELFDYIVEKGRLQEDEARNFFQQIISGVEYCHRNMVVHRDLKPENLLLDSKCNVKIADFGLSNIMRDGHFLKTSCGSPNYAAPEVISGKLYAGPEVDVWSCGVILYALLCGTLPFDDENIPNLFKKIKGGIYTLPSHLSPGARDLIPRMLVVDPMKRVTIPEIRQHPWFQAHLPRYLAVPPPDTVQQAKKIDEEILQEVINMGFDRNHLIESLRNRTQNDGTVTYYLILDNRFRASSGYLGAEFQETMEGTPRMHPAESVASPVSHRLPGLMEYQGVGLRSQYPVERKWALGLQSRAHPREIMTEVLKALQDLNVCWKKIGHYNMKCRWVPNSSADGMLSNSMHDNNYFGDESSIIENEAAVKSPNVVKFEIQLYKTRDDKYLLDLQRVQGPQFLFLDLCAAFLAQLRVL
notes: KIN10, catalytic subunit of SnRK1, Arabidopsis, AT3G01090; full-length coding region without stop codon; destination vector pMAL2CGW (N-MBP); source: Escherichia coli, purified (amylose resin); not shown: MBP, N-terminal, kept

Key:
GST-bZIP30 [1] = molecular target: T1, GST-bZIP30; test: GST pull-down; binding enhanced by 1 mM H2O2 (oxidation of BZR1, Cys63)
GST-bZIP30 [2] = molecular target: T2, GST-bZIP30; test: pull-down; 1 μg GST fusion on glutathione beads incubated with 1 µg MBP or MBP fusion; 20 mM Tris-HCl pH 7.5, 100 mM NaCl, 1 mM EDTA; with or without 1 mM H2O2; room temperature; washes with 300 mM NaCl, 0.5% Triton X-100; anti-MBP immunoblot; conditions: both partners purified
MBP-bZIP30 = molecular target: T3, MBP-bZIP30; test: as above; conditions: both partners purified

binding result (GST-bZIP30 [1])	binding result (GST-bZIP30 [2])	binding result (MBP-bZIP30)	Binder
binds	binds	–	B1
–	–	binds	B2
–	binds	–	B3
